According to PMC3981788, “Allele-specific Characterization of Alanine: Glyoxylate Aminotransferase Variants Associated with Primary Hyperoxaluria” (PLoS ONE, 2014):

Molecular target: the molecule itself
Assay: SEC; data not shown; 10 uM AGTmi E274D with 100 uM PLP, Sephacryl S-300 10/600 column, 100 mM potassium phosphate buffer pH 7.4, elution volume compared with molecular weight standards

B1: alanine: glyoxylate aminotransferase, minor allele variant, E274D (enzyme, human)
chain: MASHKLLVTPLKALLKPLSIPNQLLLGPGPSNLPPRIMAAGGLQMIGSMSKDMYQIMDEIKEGIQYVFQTRNPLTLVISGSGHCALEAALVNVLEPGDSFLVGANGIWGQRAVDIGERIGARVHPMTKDPGGHYTLQEVEEGLAQHKPVLLFLTHGESSTGVLQPLDGFGELCHRYKCLLLVDSVASLGGTPLYMDRQGIDILYSGSQKALNAPPGTSLISFSDKAKKKMYSRKTKPFSFYLDIKWLANFWGCDDQPRMYHHTIPVISLYSLRDSLALIAEQGLENSWRQHREAAAYLHGRLQALGLQLFVKDPALRLPTVTTVAVPAGYDWRDIVSYVMDHFDIEIMGGLGPSTGKVLRIGLLGCNATRENVDRVTEALRAALQHCPKKKL
notes: alanine: glyoxylate aminotransferase (AGT), human, minor allele (P11L, I340M) with the PH1-associated mutation E274D; SEC was run in the presence of 100 uM PLP (holo form); E274D was found in patients on the minor allele; also called AGTmi E274D; AGTmi^E274D; source: bacteria (pET30a), purified
stoichiometry N: 2
